From the supplement of paper PMC11811203

B1: THAP1; numbered along this chain (parent)
chain: MVQSCSAYGCKNRYDKDKPVSFHKFPLTRPSLCKEWEAAVRRKNFKPTKYSSICSEHFTPDCFKRECNNKLLKENAVPTIFLCTEPHDKKEDLLEPQEQLPPPPLPPPVSQVDAAIGLLMPPLQTPVNLSVFCDHNYTVEDTMHQRKRIHQLEQQVEKLRKKLKTAQQRCRRQERQLEKLKEVVHFQKEKDDVSERGYVILPNDYFEIVEVPA

Variants of: B1
Assay: THAP1 transcriptional activity (GFP+/GFP- enrichment relative to wild-type constructs) (ratio to WT); higher = more THAP1 activity (PSMB5 reporter activation)
Settings: with PSMB5 promoter-GFP reporter
Summary of the method: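 In duplicate, a lentivirus-delivered library with every residue from 2–213 of human THAP1 changed to all 20 amino acids was introduced at MOI ~0.3 into THAP1-knockout HEK-293T cells carrying endogenous PSMB5 tagged by mClover3 knock-in. Five days on, BFP+ cells were binned as GFP-dim or GFP-bright, and Illumina sequencing of genomic DNA amplicons counted each variant. Activity is the bright/dim read fold change, averaged over replicates and scaled to the mean of wild-type synonymous constructs.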

Compared with R160Q, F81T is lower in THAP1 transcriptional activity: 0.492 for the first, 0.207 for the second.

Compared with F81I, F81V is lower in THAP1 transcriptional activity: 0.536 for the first, 0.312 for the second.

Going from F81Y to S110P, the THAP1 transcriptional activity rises from 0.214 to 0.916.

Compared with E178I, E178Y is lower in THAP1 transcriptional activity: 0.832 for the first, 0.632 for the second.

Going from E178F to N136L, the THAP1 transcriptional activity falls from 0.529 to 0.102.

Compared with N136Q, L82V is higher in THAP1 transcriptional activity: 0.102 for the first, 1.71 for the second.

First: K11G
Second: K11Q
The THAP1 transcriptional activity of the first is lower: 0.133 for the first, 0.354 for the second.

Compared with K11N, I80M is lower in THAP1 transcriptional activity: 0.629 for the first, 0.484 for the second.

Going from I80H to I80W, the THAP1 transcriptional activity falls from 0.323 to 0.268.

Compared with I80N, G197T is higher in THAP1 transcriptional activity: 0.429 for the first, 1.41 for the second.

Compared with V209Q, V209E is lower in THAP1 transcriptional activity: 1.67 for the first, 0.612 for the second.

Going from S194P to T28L, the THAP1 transcriptional activity falls from 1.22 to 0.612.

First: T28A
Second: R42W
The THAP1 transcriptional activity of the first is higher: 0.664 for the first, 0.128 for the second.

Compared with R42P, K64T is higher in THAP1 transcriptional activity: 0.0977 for the first, 0.115 for the second.

Compared with K64S, D134Q is lower in THAP1 transcriptional activity: 0.123 for the first, 0.0618 for the second.

Going from F22N to L152E, the THAP1 transcriptional activity rises from 0.0832 to 0.227.

Compared with K179I, K179V is lower in THAP1 transcriptional activity: 0.633 for the first, 0.388 for the second.

Compared with C33R, N44D is higher in THAP1 transcriptional activity: 0.15 for the first, 1.16 for the second.

Going from N44V to N44I, the THAP1 transcriptional activity rises from 0.111 to 0.118.

First: T79K
Second: E140V
The THAP1 transcriptional activity of the first is lower: 0.278 for the first, 1.01 for the second.

Compared with K24I, K24W is higher in THAP1 transcriptional activity: 0.0809 for the first, 0.156 for the second.

Compared with N203F, N203M is higher in THAP1 transcriptional activity: 0.728 for the first, 0.934 for the second.

Compared with L180W, L180N is lower in THAP1 transcriptional activity: 0.575 for the first, 0.473 for the second.

Compared with E153G, V211G is higher in THAP1 transcriptional activity: 0.412 for the first, 0.936 for the second.

First: K43C
Second: K43T
The THAP1 transcriptional activity of the first is lower: 0.621 for the first, 0.689 for the second.

Going from K43S to H57V, the THAP1 transcriptional activity falls from 0.623 to 0.105.

Compared with L177R, R146N is higher in THAP1 transcriptional activity: 0.3 for the first, 0.584 for the second.

Going from H144Q to H144T, the THAP1 transcriptional activity falls from 0.814 to 0.4.

Going from H144F to H144E, the THAP1 transcriptional activity falls from 0.637 to 0.421.

First: H144Y
Second: Y8A
The THAP1 transcriptional activity of the first is higher: 0.802 for the first, 0.581 for the second.

Compared with Y8C, Y8V is higher in THAP1 transcriptional activity: 0.192 for the first, 0.472 for the second.

First: Y8N
Second: C5S
The THAP1 transcriptional activity of the first is higher: 0.449 for the first, 0.0878 for the second.

Compared with C5W, C170E is lower in THAP1 transcriptional activity: 0.202 for the first, 0.194 for the second.

Compared with C170M, C10R is lower in THAP1 transcriptional activity: 0.824 for the first, 0.157 for the second.

Going from C10Y to C10G, the THAP1 transcriptional activity falls from 0.106 to 0.098.

First: C10H
Second: C10V
The THAP1 transcriptional activity of the first is lower: 0.0737 for the first, 0.175 for the second.

Going from E210A to E210Q, the THAP1 transcriptional activity rises from 0.354 to 1.15.

First: K89V
Second: P121F
The THAP1 transcriptional activity of the first is higher: 1.41 for the first, 0.115 for the second.

First: P121D
Second: P121I
The THAP1 transcriptional activity of the first is higher: 0.48 for the first, 0.299 for the second.

Going from L71P to L71Y, the THAP1 transcriptional activity rises from 0.113 to 0.309.

Going from L94G to L94I, the THAP1 transcriptional activity rises from 1.56 to 2.23.

First: D92K
Second: Q99S
The THAP1 transcriptional activity of the first is higher: 1.22 for the first, 0.884 for the second.

First: E182G
Second: L163N
The THAP1 transcriptional activity of the first is higher: 0.726 for the first, 0.134 for the second.

Compared with L163E, L163C is higher in THAP1 transcriptional activity: 0.196 for the first, 0.422 for the second.

First: L163D
Second: L163P
The THAP1 transcriptional activity of the first is lower: 0.0892 for the first, 0.149 for the second.

First: L163G
Second: L163V
The THAP1 transcriptional activity of the first is lower: 0.179 for the first, 0.545 for the second.

Compared with Y137L, Y137A is lower in THAP1 transcriptional activity: 0.167 for the first, 0.0848 for the second.

Compared with Y198R, Y198M is higher in THAP1 transcriptional activity: 0.78 for the first, 1.02 for the second.

Compared with Y198P, V139W is lower in THAP1 transcriptional activity: 0.891 for the first, 0.454 for the second.

Compared with V139S, Q151M is higher in THAP1 transcriptional activity: 0.407 for the first, 0.894 for the second.

Compared with Q151L, P102W is higher in THAP1 transcriptional activity: 0.804 for the first, 1.02 for the second.

Going from P102H to P102S, the THAP1 transcriptional activity rises from 1.04 to 1.09.

Going from P102Q to P102R, the THAP1 transcriptional activity falls from 3.01 to 1.43.

Compared with T84W, K162L is lower in THAP1 transcriptional activity: 1.97 for the first, 0.417 for the second.

Going from K18R to K18Q, the THAP1 transcriptional activity falls from 0.936 to 0.511.

Going from L72T to L100D, the THAP1 transcriptional activity rises from 0.0921 to 1.66.

Going from P202W to C67T, the THAP1 transcriptional activity rises from 0.577 to 1.19.

Compared with C67Y, R196S is higher in THAP1 transcriptional activity: 0.2 for the first, 1.36 for the second.

First: R196T
Second: R196E
The THAP1 transcriptional activity of the first is higher: 1.47 for the first, 1.34 for the second.

Going from S52L to S52V, the THAP1 transcriptional activity rises from 0.606 to 1.14.

Going from T165K to K46G, the THAP1 transcriptional activity falls from 0.633 to 0.0852.

First: Q124F
Second: Q124N
The THAP1 transcriptional activity of the first is lower: 0.463 for the first, 0.579 for the second.

Compared with Q124P, E91N is higher in THAP1 transcriptional activity: 0.631 for the first, 0.857 for the second.

First: E207R
Second: L123T
The THAP1 transcriptional activity of the first is lower: 0.5 for the first, 1.44 for the second.

Compared with L123H, Q3L is lower in THAP1 transcriptional activity: 1.24 for the first, 0.354 for the second.

First: Q3W
Second: P26H
The THAP1 transcriptional activity of the first is higher: 0.0989 for the first, 0.0688 for the second.

Going from P26N to P26Q, the THAP1 transcriptional activity rises from 0.147 to 0.222.

Going from P26C to Q154S, the THAP1 transcriptional activity rises from 0.106 to 1.24.

Going from S21D to S21H, the THAP1 transcriptional activity falls from 0.0962 to 0.0793.

Going from A7N to A7T, the THAP1 transcriptional activity falls from 0.133 to 0.0906.

First: C133T
Second: P212N
The THAP1 transcriptional activity of the first is lower: 0.872 for the first, 1.15 for the second.

Going from P212V to W36K, the THAP1 transcriptional activity falls from 1.99 to 0.123.

First: W36L
Second: W36I
The THAP1 transcriptional activity of the first is higher: 0.338 for the first, 0.0405 for the second.

Compared with R65M, P104I is higher in THAP1 transcriptional activity: 0.623 for the first, 0.946 for the second.

First: P104M
Second: G117R
The THAP1 transcriptional activity of the first is higher: 0.907 for the first, 0.476 for the second.

First: G117Q
Second: G117K
The THAP1 transcriptional activity of the first is higher: 0.581 for the first, 0.256 for the second.

First: G117C
Second: V183D
The THAP1 transcriptional activity of the first is lower: 0.534 for the first, 0.954 for the second.

Compared with K147E, K147G is lower in THAP1 transcriptional activity: 0.626 for the first, 0.51 for the second.

Compared with K147Y, K147R is higher in THAP1 transcriptional activity: 0.522 for the first, 0.9 for the second.

Compared with V199T, S6F is lower in THAP1 transcriptional activity: 0.697 for the first, 0.149 for the second.

First: P122H
Second: Y205K
The THAP1 transcriptional activity of the first is lower: 0.355 for the first, 0.717 for the second.

Going from V127T to V127R, the THAP1 transcriptional activity rises from 0.875 to 1.19.

Going from V127S to E157L, the THAP1 transcriptional activity falls from 1.39 to 0.434.

With E157D the THAP1 transcriptional activity was 0.766.
